No end group written: not given here.
Experiments:
[1] = target: FRPR-16 (C. elegans); assay: cell-based or functional assay
[2] = target: NPR-10B (C. elegans); assay: cell-based or functional assay

B1: FLP-3-8 (SADDSAPFGTMRFamide) (peptide)
peptide: SADDSAPFGTMRF-NH2
**Q.** For B1, which “EC50 of receptor activation (aequorin calcium luminescence, transfected CHO-K1/Galpha16 cells)” value [1] is on record?
**A.** Its value is 1600 nM.

B2: FLP-3-4 (NPLGTMRFamide) (peptide)
peptide: NPLGTMRF-NH2
**Q.** For B2, which “EC50 of receptor activation (aequorin calcium luminescence, transfected CHO-K1/Galpha16 cells)” value [2] is on record?
**A.** The value was 427 nM.

**Q.** And the “EC50 of receptor activation (aequorin calcium luminescence, transfected CHO-K1/Galpha16 cells)” value [1]?
**A.** Its value is 10.7 nM.

B3: FLP-3-1 (SPLGTMRFamide) (peptide)
peptide: SPLGTMRF-NH2
**Q.** Which “EC50 of receptor activation (aequorin calcium luminescence, transfected CHO-K1/Galpha16 cells)” value [2] does the source give for B3 here?
**A.** The value was 262 nM.

**Q.** What about the “EC50 of receptor activation (aequorin calcium luminescence, transfected CHO-K1/Galpha16 cells)” value [1] of the same binder?
**A.** Its value is 7.4 nM.

B4: FLP-3-7 (SAEPFGTMRFamide) (peptide)
peptide: SAEPFGTMRF-NH2
**Q.** B4 was tested. Which “EC50 of receptor activation (aequorin calcium luminescence, transfected CHO-K1/Galpha16 cells)” value [2] did it give?
**A.** Its value is 439 nM.

**Q.** And the “EC50 of receptor activation (aequorin calcium luminescence, transfected CHO-K1/Galpha16 cells)” value [1]?
**A.** The value was 39.5 nM.

B5: FLP-3-5 (ASEDALFGTMRFamide) (peptide)
peptide: ASEDALFGTMRF-NH2
**Q.** Which “EC50 of receptor activation (aequorin calcium luminescence, transfected CHO-K1/Galpha16 cells)” value [2] does the source give for B5 here?
**A.** The value was 1100 nM.

**Q.** What about the “EC50 of receptor activation (aequorin calcium luminescence, transfected CHO-K1/Galpha16 cells)” value [1] of the same binder?
**A.** The value was 72.1 nM.

B6: FLP-3-9 (NPENDTPFGTMRFamide) (peptide)
peptide: NPENDTPFGTMRF-NH2
**Q.** How did the “EC50 of receptor activation (aequorin calcium luminescence, transfected CHO-K1/Galpha16 cells)” value [2] turn out when B6 was run?
**A.** The value was 760 nM.

**Q.** What about the “EC50 of receptor activation (aequorin calcium luminescence, transfected CHO-K1/Galpha16 cells)” value [1] of the same binder?
**A.** Its value is 88.3 nM.

B7: FLP-3-2 (TPLGTMRFamide) (peptide)
peptide: TPLGTMRF-NH2
**Q.** B7 was tested. Which “EC50 of receptor activation (aequorin calcium luminescence, transfected CHO-K1/Galpha16 cells)” value [2] did it give?
**A.** The value was 366 nM.

**Q.** What about the “EC50 of receptor activation (aequorin calcium luminescence, transfected CHO-K1/Galpha16 cells)” value [1] of the same binder?
**A.** The value was 31.7 nM.

B8: FLP-3-3 (EAEEPLGTMRFamide) (peptide)
peptide: EAEEPLGTMRF-NH2
**Q.** Which “EC50 of receptor activation (aequorin calcium luminescence, transfected CHO-K1/Galpha16 cells)” value [2] does the source give for B8 here?
**A.** Its value is 867 nM.

**Q.** What about the “EC50 of receptor activation (aequorin calcium luminescence, transfected CHO-K1/Galpha16 cells)” value [1] of the same binder?
**A.** Its value is 288 nM.
